This series deals with MS2 coat protein. The series is described as follows: apparent KD of MS2 coat protein; designed switch direction (-1 OFF switch, 1 ON switch): -1; higher = weaker reporter binding. In outline:
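Designed RNA switches with common flanks were made on Illumina chips by stalled E. coli RNA polymerase. Titration with SNAP-549-labelled MS2 coat protein doubled from 0.7 or 1.5 nM up to 3 µM. Apparent KD is each design's median over clusters after curve-fitting normalised fluorescence.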

The mark [1] stands for this setting: input ligand: microRNA oligo, concentration not stated.
[2] abbreviates: Eterna round: R95, input ligand: microRNA oligo, concentration not stated.
Setting [3] is: Eterna round: R95, input ligand: FMN 200 uM.
Where [4] appears, read: Eterna round: R95, input ligand: none.

These results are taken from the supplement of paper PMC9170038.

Take “ACAUGUUAUCCAUGAUAUUACAUGAGGAUCACCCAUGUUAUGGCGAUUUUGAUGUGUAAGUUUGUUGCUCGUCUUAU [JR_STOV1_Sub060] (Eterna round: R97, puzzle: Sensor, turn-off variant 1)”: the “apparent KD of MS2 coat protein” value runs as follows: (input ligand: FMN 200 uM) 40.9 nM; (input ligand: none) 48.1 nM.
Regarding “UAUUAACAAGCUAGGUCCCACAUGAGGAUCACCCAUGUGCUCGUCUUAUAAGGUACUGUGACGAAAGUCACGGUACC [Sensor 3, v1 - 79] (Eterna round: R96, puzzle: Sensor v3, turn-off variant 1)”, the “apparent KD of MS2 coat protein” value is, setting by setting: (input ligand: FMN 200 uM) 30.2 nM; under setting [1], 464 nM; (input ligand: none) 38.4 nM.
Take “GAUCCACAUGAGGAUCACCCAUGUGAGGAUAUGAUACUAUGUACUUCGGUACAUAGUAUCAGAAGGCACGGAUC [Ex1-3: 54] (puzzle: Exclusion 1)”: the “apparent KD of MS2 coat protein” value under setting [2] is 24.6 nM.
In the case of “GCUGGUCGAGGAUAUACAAUCGUGCUUCGGCACGUAAGGUCACAUGAGGAUCACCCAUGUAGAAGGUGACCAGC [E2/2-B1] (Eterna round: R97, puzzle: Exclusion 2)”, the “apparent KD of MS2 coat protein” value is, setting by setting: (input ligand: FMN 200 uM) 57.7 nM; (input ligand: none) 20.7 nM.
Consider “GCAGUGCGAGGAUAUACAUGAGGAUCACCCAUGUGAGAAUAAGAAGUGAGGAAGAAAAGUAGAAGGCGCGUUGG [Mat - Exclusion 3 - Mod of Salish D66] (Eterna round: R96, puzzle: Exclusion 3)”, for which the “apparent KD of MS2 coat protein” value (input ligand: FMN 200 uM) amounted to 103 nM, the “apparent KD of MS2 coat protein” value under setting [1] is 49.5 nM and the “apparent KD of MS2 coat protein” value (input ligand: none) worked out at 52.6 nM.
Turning to “UGGCUGCUUAUGGAGUGUGACAUGAGGAUCACCCAUGUGGUAGUAAGGAACAAGCUUUUUACACGUACUUAUAAAGC [JR_SV3TOV1_Sub012] (puzzle: Sensor v3, turn-off variant 1)”, the “apparent KD of MS2 coat protein” value runs as follows: under setting [3], 296 nM; under setting [2], 64.3 nM; under setting [4], 438 nM.
As to “GCCUUACCGGUCAGGAUAUACAUUCGUCACUCCUUGUAGAAGGGACAUGAGGAUCACCCAUGUACAUUACAUUC [alecazam41] (Eterna round: R97, puzzle: Brourd's mod of Exclusion 4)”, the “apparent KD of MS2 coat protein” value by setting is: (input ligand: FMN 200 uM) 22 nM; (input ligand: none) 26.1 nM.
As to “GACUAGUGAGGAUAUACUUGCAGUGUACCUCGGGUGAUCUCACUUGAGGAUCACCCAAGUAGAAGGCGCGAGGG [EX2 #23] (Eterna round: R97, puzzle: Exclusion 2)”, the “apparent KD of MS2 coat protein” value is, setting by setting: (input ligand: FMN 200 uM) 13.1 nM; (input ligand: none) 18.3 nM.
As to “GUUUCACAUGAGGAUCACCCAUGUGAGGAUAUCAAUUUGUUAACCGUAGUUAAUAGAUUGAGAAGGCGCGUGAU [JRxlusion 2- Jieux - Exclusion 1] (Eterna round: R97, puzzle: Exclusion 1)”, the “apparent KD of MS2 coat protein” value amounted to 64.5 nM (input ligand: FMN 200 uM) and 49 nM (input ligand: none).
The like results for “AAAGGCUCAGGAUAUGCCCAGGAAGACAUGAGGAUCACCCAUGUACUACGGGUGUCAUACGCAGAAGGGAGAUAGA [EX5 C.28] (Eterna round: R97, puzzle: Exclusion 5)” were, in that order, 25.1 nM and 28.7 nM.
As for “CUGCUCCGUGUAGGAUAUGCGCGCACCCACCGCGCAGAAGGACAUGAGGAUCACCCAUGUAUGUUAUUAUCACGUGAGGCGCGG [Design 36] (Eterna round: R96, puzzle: Exclusion NG 1)”, the “apparent KD of MS2 coat protein” value is, setting by setting: (input ligand: FMN 200 uM) 31.9 nM; under setting [1], 17.7 nM; (input ligand: none) 33.1 nM.
The like results for “GGUGUCGUCAGAAGACAUGAGGAUCACCCAUGUAAAUGCACUGAGGAUAUACGGGCGACCGGCGUGUAGAAGGUAGAGCACGAA [Ladivequ] (Eterna round: R96, puzzle: Exclusion NG 3)” were, in that order, 43 nM, 24.5 nM and 41.6 nM.
The like results for “AGGUCCUUCUGGAGACAUGAGGAUCACCCAUGUCGAGUCAGCGAGGAUAUCGGUUAAUAAUGUGAUGAGAAGGCGCGGACCGAU [Ex NG3 #54] (Eterna round: R96, puzzle: Exclusion NG 3)” were, in that order, 41.5 nM, 11.6 nM and 19.3 nM.
Take “UAUGGUUAAGUCAGGAUAUGCUCAUAGAGGUCUAUGCAGAAGGGACAUGAGGAUCACCCAUGUAUGGUCGUGUU [Ex4 #64] (Eterna round: R97, puzzle: Brourd's mod of Exclusion 4)”: the “apparent KD of MS2 coat protein” value was determined as 84.6 nM (input ligand: FMN 200 uM) and 53.6 nM (input ligand: none).
In the case of “CAAAAGCUAGGAUAUACAUGAGGAUCACCCAUGUAUAGGUGGGCAGUUCUUAUCAAACGUAGAAGGAGCAUAAA [Uslaisan] (puzzle: Exclusion 3)”, the “apparent KD of MS2 coat protein” value is, setting by setting: under setting [3], 39.2 nM; under setting [2], 17.5 nM; under setting [4], 16.6 nM.
On to “GGUGGGCUAGGAUAUGCUUUGGGCAGGCAUUCCUUCGAUAAACUUGAGGAUCACCCAAGUAGAAGGAGCUUGCC [salish99_ex2_r4_025] (Eterna round: R97, puzzle: Exclusion 2)”, for which the “apparent KD of MS2 coat protein” value is, setting by setting: (input ligand: FMN 200 uM) 10.8 nM; (input ligand: none) 10.7 nM.
Take “CGCCUGUUAGGAUAUUAGUAGUAGUCAGAAUAGACUAUUACUGAGAAGGGACAUGAGGAUCACCCAUGUUGGCG [Eli x4 4.12] (Eterna round: R97, puzzle: Exclusion 4)”: the “apparent KD of MS2 coat protein” value (input ligand: FMN 200 uM) was determined as 22.2 nM and the “apparent KD of MS2 coat protein” value (input ligand: none) turned out to be 18.8 nM.
The corresponding values for “GCCGAAAGUGUGAGGAUAUACCUAUGGAUACAUAGGUAGAAGGCACAUGAGGAUCACCCAUGUUCCUAAUCGGC [Eli bmx4 4.18] (Eterna round: R97, puzzle: Brourd's mod of Exclusion 4)” are 306 nM and 103 nM.
As for “CAGUACCUAGGAUAUACACGGCCACGUGAUACCAAGGAGCAACUUGAGGAUCACCCAAGUAGAAGGAGGUACUG [jl-ex2.4.42 ViennaUCT mod] (Eterna round: R97, puzzle: Exclusion 2)”, the “apparent KD of MS2 coat protein” value came to 3200 nM (input ligand: FMN 200 uM) and 198 nM (input ligand: none).
On to “AAGGAUAGAGGAUAUACGUAGAUACAGAUUCAUGUAGAACUACAUGAGGAUCACCCAUGUAGAAGGCUAUCCUA [Fiskers Ex 2 - 6] (puzzle: Exclusion 2)”, for which the “apparent KD of MS2 coat protein” value under setting [2] was found to be 26.5 nM.
As to “UAUGAUUUAGGAUAUUGUACUGCUGACAUGAGGAUCACCCAUGUAUGCUAACUCGGCCGUCGAGAAGGAGAUUAUG [BotMod 29 - Jieux - Exclusion 5] (Eterna round: R97, puzzle: Exclusion 5)”, the “apparent KD of MS2 coat protein” value (input ligand: FMN 200 uM) turned out to be 37.9 nM and the “apparent KD of MS2 coat protein” value (input ligand: none) stood at 39.4 nM.
“GCGUGACAUGAGGAUCACCCAUGUGAGGAUAUCUGGAUAAUUUUUAUUUUAGAUAUCCAGAGAAGGCACAUGCU [Ex1-3: 2Z] (puzzle: Exclusion 1)”: the “apparent KD of MS2 coat protein” value under setting [2] was 62.4 nM.
Consider “UUAGAUUAUUGAGGAUAUGGAUCUUAUUAUUAACCAGAAGGCAAACUCAACAUGAGGAUCACCCAUGUAUAAAGGGUAUUAGUU [JR_ExcNG1_Sub099] (Eterna round: R96, puzzle: Exclusion NG 1)”, for which the “apparent KD of MS2 coat protein” value under setting [1] came out at 62.8 nM.
As for “UUAAUUAAUUUAUUAGAUCCUCACAUGAGGAUCACCCAUGUGCAGGAUAUCAGCUCGUGUAGAGCUGAGAAGGGCACUAUAAAU [ExNG3/10-B3] (Eterna round: R96, puzzle: Exclusion NG 3)”, the “apparent KD of MS2 coat protein” value by setting is: (input ligand: FMN 200 uM) 29.8 nM; under setting [1], 61.5 nM; (input ligand: none) 116 nM.
In the case of “AAUAACAGAGGAUAUACUGUUUUAUGUGUUUGUUAUUUUGAACAUGAGGAUCACCCAUGUAGAAGGCUGAGUAA [JMF 37] (puzzle: Exclusion 2)”, the “apparent KD of MS2 coat protein” value under setting [2] was determined as 23.6 nM.
For “AGUUAUGUAGGAUAUGCACGUGACAACUUGAGGAUCACCCAAGUGAUUGCAGGCUGGGCGGCAGAAGGGCAGUUGU [Diedbi] (Eterna round: R97, puzzle: Exclusion 5)”, the “apparent KD of MS2 coat protein” value (input ligand: FMN 200 uM) was 153 nM and the “apparent KD of MS2 coat protein” value (input ligand: none) came out at 104 nM.
Regarding “UUUAAUUUUUUUUUUUUACAAGCUUUUUGCUCGUCUUAUACAUGAGGAUCACCCAUGUAAAUGGAGGAUAAAUUAUC [JMF 29] (puzzle: Sensor v3, turn-off variant 2)”, the “apparent KD of MS2 coat protein” value is, setting by setting: under setting [3], 22.4 nM; under setting [2], 41.1 nM; under setting [4], 19.7 nM.
As to “CAGUACGGAGGAUAUACAUGAGGAUCACCCAUGUGAGAGAUACUAGUGAGGUCGAUUAGUAGAAGGCUGUACUG [Mat X3R4 m6] (Eterna round: R97, puzzle: Exclusion 3)”, the “apparent KD of MS2 coat protein” value is, setting by setting: (input ligand: FMN 200 uM) 501 nM; (input ligand: none) 39.7 nM.
On to “CAGUACUGAGGAUAUACAUGAGGAUCACCCAUGUGUUCCAGGUAGGAAACUAGCAAAAGUAGAAGGCAGUACUG [salish99_ex3_r3_078] (Eterna round: R96, puzzle: Exclusion 3)”, for which the “apparent KD of MS2 coat protein” value under setting [1] is 17.5 nM.
Regarding “GUUAUUAAUGUAGGAUAUGCAAGGCGAACCUAAGCAGAAGGACAUGAGGAUCACCCAUGUAUUGCGGUCUGCGUUCAGAUCGCU [salish99_ExNG1_r4_012] (Eterna round: R96, puzzle: Exclusion NG 1)”, the “apparent KD of MS2 coat protein” value worked out at 39.9 nM (input ligand: FMN 200 uM), 15.8 nM under setting [1] and 19.4 nM (input ligand: none).
“GCCUUAUCUGUCAGGAUAUACAAUAAAAUUUUUUUGUAGAAGGGACAUGAGGAUCACCCAUGUACAUUACAUUG [alecazam22] (Eterna round: R97, puzzle: Brourd's mod of Exclusion 4)”: the “apparent KD of MS2 coat protein” value stood at 315 nM (input ligand: FMN 200 uM) and 49.7 nM (input ligand: none).
